Legend:
[1] = biological target: mitochondrial 28S small ribosomal subunit (bovine); experiment: Microcon-100 centrifugation with dot blot immunodetection
[2] = biological target: C-terminal domain of IF3mt with the linker, His6-tagged (human); experiment: SPR
[3] = biological target: mitochondrial 28S small ribosomal subunit (bovine); experiment: dot blot of epitope exposure
[4] = biological target: mitochondrial 28S small ribosomal subunit (bovine); experiment: co-sedimentation

C-terminal domain of IF3mt without the linker, His6-tagged (domain or fragment)
Kd [1]: 95 nM

untagged N-domain of IF3mt with the linker (His-tag removed with TEV protease) (domain or fragment)
Kd [1]: 232 nM

N-terminal domain of IF3mt without the linker, His6-tagged (domain or fragment)
Kd [1]: 390 nM

mitochondrial 28S small ribosomal subunit (complex)
Kd [2]: 44 nM | koff [2]: 0.0092 s⁻¹ | kon [2]: 210000 M⁻¹ s⁻¹

C-terminal domain of IF3mt with the linker, His6-tagged (domain or fragment)
Kd [1]: 60 nM

mitochondrial initiation factor 3, mature full-length form, His-tagged (from UniProt Q9H2K0 32-278) (natural protein)
quenching of the antigenic response on binding [3]: 80% | Kd [4]: 35 nM

N-terminal domain of IF3mt with the linker, His6-tagged (domain or fragment)
Kd [1]: 240 nM | Kd [4]: 277 nM

untagged IF3mt (mature full-length form, His-tag removed with TEV protease) (from UniProt Q9H2K0 32-278) (natural protein)
Kd [1]: 40 nM

untagged C-domain of IF3mt with the linker (His-tag removed with TEV protease) (domain or fragment)
Kd [1]: 70 nM

— publication PMC2645338
